The test concerns the target E4F1 (UniProt Q66K89). Description: co-IP, immunoblot. Particulars: reference: PA28γ wild type; sites T23. On the technique in general: A western blot detects proteins with antibodies after separation by electrophoresis.

As for PA28γ (from UniProt P61289) T23A, the “binding against the reference” value is recorded as “weaker”.

The values are drawn from article PMC12800137.
